# B1: MntR protein from B. subtilis (natural protein, Bacillus subtilis, UniProt P54512 1-142, looked up)
# chain: MTTPSMEDYIEQIYMLIEEKGYARVSDIAEALAVHPSSVTKMVQKLDKDEYLIYEKYRGLVLTSKGKKIGKRLVYRHELLEQFLRIIGVDEEKIYNDVEGIEHHLSWNSIDRIGDLVQYFEEDDARKKDLKSIQKKTEHHNQ
# notes: Manganese-dependent transcription factor MntR of Bacillus subtilis, UniProt P54512; Theoretical mass of the dimer printed as 33.8 kDa; also called BMntR; B. subtilis MntR protein; source: purified as before [3]
# Target: the molecule itself
# Assay: nES GEMMA (gas-phase electrophoresis, nES DMA); BMntR alone at different concentrations, electrosprayed from 40 mM ammonium acetate pH 8.4; EM diameter 5.9 nm turned into a molecular weight by an EM diameter/MW correlation (34.6 kDa against 33.8 kDa theoretical for the dimer)
protein,measurement,value
B1,stoichiometry N,2

# From article PMC11416365, “Exploring the manganese-dependent interaction between a transcription factor and its corresponding DNA: insights from gas-phase electrophoresis on a nES GEMMA instrument” (Analytical and Bioanalytical Chemistry, 2024)
